Where two headings read alike, the source gives them in different places. Blank lines part the entries; values can stand above or below the molecule they belong to.
Key:
[1] = tested on: T1, fluorescent cathepsin D/E substrate MOCac-Gly-Lys-Pro-Ile-Leu-Phe-Phe-Arg-Leu-Lys(Dnp)-D-Arg-NH2
T1 sequence: GKPILFFRLK

[2] = target: T1, fluorescent cathepsin D/E substrate MOCac-Gly-Lys-Pro-Ile-Leu-Phe-Phe-Arg-Leu-Lys(Dnp)-D-Arg-NH2; test: cell-based or functional assay
[3] = target: recombinant bovine PAG-2 (fusion protein with the FLAG peptide) (bovine) (UniProt Q28057); test: immuno-trap protease assay on crude insect cell lysate
[4] = target: recombinant porcine PAG-2 (FLAG-tagged) (porcine) (UniProt Q29079); test: as above
[5] = target: recombinant bovine PAG-12 (fusion protein with the FLAG peptide) (bovine); test: as above
[6] = target: recombinant bovine PAG-2 (fusion protein with the FLAG peptide) (bovine) (UniProt Q28057); test: immuno-trap protease assay on crude insect cell lysate (second row)
[7] = target: recombinant porcine PAG-2 (FLAG-tagged) (porcine) (UniProt Q29079); test: as above
[8] = target: recombinant bovine PAG-12 (fusion protein with the FLAG peptide) (bovine); test: as above
[9] = target: recombinant porcine PAG-2 (FLAG-tagged) (porcine) (UniProt Q29079); test: immuno-trap protease assay, anti-FLAG with poPAG-2 lysate as positive control
[10] = target: recombinant equine-TSH-beta (equine) (UniProt Q28376); test: immuno-trap protease assay, anti-FLAG with TSH-beta; TSH-beta has no proteolytic activity, so the reading is background and does not tell whether it was trapped
[11] = target: control insect cell lysate (sf9 cells infected with empty Baculovirus); test: immuno-trap protease assay, control lysate
[12] = target: control insect cell lysate (sf9 cells infected with empty Baculovirus); test: immuno-trap protease assay, control lysate (second row)
[13] = target: bovine serum albumin (bovine) (UniProt P02769); test: immuno-trap protease assay, 1 ug rabbit immunoglobulins coated, background control, 50 ng blank column
UniProt P02769, sequence (P02769 25-607 limits assumed): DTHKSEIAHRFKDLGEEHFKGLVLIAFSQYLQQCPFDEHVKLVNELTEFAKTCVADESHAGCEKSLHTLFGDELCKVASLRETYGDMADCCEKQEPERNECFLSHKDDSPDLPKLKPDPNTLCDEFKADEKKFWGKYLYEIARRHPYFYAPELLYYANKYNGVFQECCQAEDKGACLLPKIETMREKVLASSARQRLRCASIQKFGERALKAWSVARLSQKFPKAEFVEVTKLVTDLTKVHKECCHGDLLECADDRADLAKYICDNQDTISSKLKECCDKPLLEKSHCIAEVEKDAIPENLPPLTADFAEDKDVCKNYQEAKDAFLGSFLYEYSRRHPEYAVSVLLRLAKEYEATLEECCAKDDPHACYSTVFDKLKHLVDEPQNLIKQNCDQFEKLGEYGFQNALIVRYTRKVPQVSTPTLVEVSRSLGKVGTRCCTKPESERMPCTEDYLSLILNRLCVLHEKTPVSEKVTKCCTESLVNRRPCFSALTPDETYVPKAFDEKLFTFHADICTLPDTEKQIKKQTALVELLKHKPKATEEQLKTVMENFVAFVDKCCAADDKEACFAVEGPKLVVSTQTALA

[14] = target: T2, fluorescent cathepsin D/E substrate MOCac-Gly-Lys-Pro-Ile-Leu-Phe-Phe-Arg-Leu-Lys(Dnp)-D-Arg-NH2
T2 chain: GKPILFFRLK

Molecule: recombinant bovine PAG-12 (fusion protein with the FLAG peptide)
proteolytic activity (% relative activity) [1]: maximal activity for boPAG-12 and poPAG-2 was at pH 3.5

relative fluorescent product release, anti-FLAG immuno-trap protease assay, pH 3.0 (relative fluorescence) [2]: 40300
relative fluorescent product release, anti-FLAG immuno-trap protease assay, pH 4.0 (relative fluorescence) [2]: 32500
relative fluorescent product release, anti-FLAG immuno-trap protease assay, pH 5.0 (relative fluorescence) [2]: 32100
relative fluorescent product release, anti-FLAG immuno-trap protease assay, pH 6.0 (relative fluorescence) [2]: 24300
relative fluorescent product release, anti-FLAG immuno-trap protease assay, pH 7.0 (relative fluorescence) [2]: 23300
Molecule: recombinant boPAG-19 (FLAG epitope tag fusion)

relative fluorescence of released product (relative fluorescence) [3]: 27000
relative fluorescence of released product (relative fluorescence) [4]: 96800
relative fluorescence of released product (relative fluorescence) [5]: 42300
relative fluorescence of released product (relative fluorescence) [6]: 26500
relative fluorescence of released product (relative fluorescence) [7]: 92300
relative fluorescence of released product (relative fluorescence) [8]: 23000
relative fluorescent product release (relative fluorescence) [9]: 97400
relative fluorescent product release (relative fluorescence) [10]: 47000
relative fluorescence of released product (relative fluorescence) [11]: 4120
relative fluorescence of released product (relative fluorescence) [12]: 7760
Molecule: anti-FLAG monoclonal antibody (M2; Sigma)

relative fluorescent product release, anti-FLAG immuno-trap protease assay, pH 3.0 (relative fluorescence) [2]: 34600
relative fluorescent product release, anti-FLAG immuno-trap protease assay, pH 4.0 (relative fluorescence) [2]: 28600
relative fluorescent product release, anti-FLAG immuno-trap protease assay, pH 5.0 (relative fluorescence) [2]: 28500
relative fluorescent product release, anti-FLAG immuno-trap protease assay, pH 6.0 (relative fluorescence) [2]: 23300
relative fluorescent product release, anti-FLAG immuno-trap protease assay, pH 7.0 (relative fluorescence) [2]: 23700
Molecule: recombinant boPAG-17 (FLAG epitope tag fusion)

Molecule: recombinant boPAG-8 (FLAG epitope tag fusion)
proteolytic activity [1]: recombinant boPAG-6, -8, -9 and -10 have proteolytic activity with acidic pH optima
relative fluorescent product release, anti-FLAG immuno-trap protease assay, pH 3.0 (relative fluorescence) [1]: 80600
relative fluorescent product release, anti-FLAG immuno-trap protease assay, pH 4.0 (relative fluorescence) [1]: 63600
relative fluorescent product release, anti-FLAG immuno-trap protease assay, pH 5.0 (relative fluorescence) [1]: 56100
relative fluorescent product release, anti-FLAG immuno-trap protease assay, pH 6.0 (relative fluorescence) [1]: 31900
relative fluorescent product release, anti-FLAG immuno-trap protease assay, pH 7.0 (relative fluorescence) [1]: 26400

relative fluorescent product release, anti-FLAG immuno-trap protease assay, pH 3.0 (relative fluorescence) [2]: 38600
relative fluorescent product release, anti-FLAG immuno-trap protease assay, pH 4.0 (relative fluorescence) [2]: 31300
relative fluorescent product release, anti-FLAG immuno-trap protease assay, pH 5.0 (relative fluorescence) [2]: 31400
relative fluorescent product release, anti-FLAG immuno-trap protease assay, pH 6.0 (relative fluorescence) [2]: 24500
relative fluorescent product release, anti-FLAG immuno-trap protease assay, pH 7.0 (relative fluorescence) [2]: 23800
Molecule: recombinant boPAG-20 (FLAG epitope tag fusion)

relative fluorescent product release, anti-FLAG immuno-trap protease assay, pH 3.0 (negative control) (relative fluorescence) [2]: 38300
relative fluorescent product release, anti-FLAG immuno-trap protease assay, pH 4.0 (negative control) (relative fluorescence) [2]: 33900
relative fluorescent product release, anti-FLAG immuno-trap protease assay, pH 5.0 (negative control) (relative fluorescence) [2]: 35000
relative fluorescent product release, anti-FLAG immuno-trap protease assay, pH 6.0 (negative control) (relative fluorescence) [2]: 28200
relative fluorescent product release, anti-FLAG immuno-trap protease assay, pH 7.0 (negative control) (relative fluorescence) [2]: 26600
Molecule: recombinant equine-TSH-beta (from UniProt Q28376 21-138)

Molecule: recombinant boPAG-9 (FLAG epitope tag fusion)
proteolytic activity [1]: recombinant boPAG-6, -8, -9 and -10 have proteolytic activity with acidic pH optima
relative fluorescent product release, anti-FLAG immuno-trap protease assay, pH 3.0 (relative fluorescence) [1]: 72100
relative fluorescent product release, anti-FLAG immuno-trap protease assay, pH 4.0 (relative fluorescence) [1]: 55000
relative fluorescent product release, anti-FLAG immuno-trap protease assay, pH 5.0 (relative fluorescence) [1]: 48100
relative fluorescent product release, anti-FLAG immuno-trap protease assay, pH 6.0 (relative fluorescence) [1]: 27800
relative fluorescent product release, anti-FLAG immuno-trap protease assay, pH 7.0 (relative fluorescence) [1]: 24400

Molecule: recombinant boPAG-10 (FLAG epitope tag fusion)
proteolytic activity [1]: recombinant boPAG-6, -8, -9 and -10 have proteolytic activity with acidic pH optima
relative fluorescent product release, anti-FLAG immuno-trap protease assay, pH 3.0 (relative fluorescence) [1]: 52100
relative fluorescent product release, anti-FLAG immuno-trap protease assay, pH 4.0 (relative fluorescence) [1]: 42700
relative fluorescent product release, anti-FLAG immuno-trap protease assay, pH 5.0 (relative fluorescence) [1]: 38800
relative fluorescent product release, anti-FLAG immuno-trap protease assay, pH 6.0 (relative fluorescence) [1]: 26500
relative fluorescent product release, anti-FLAG immuno-trap protease assay, pH 7.0 (relative fluorescence) [1]: 23600

Molecule: recombinant boPAG-6 (FLAG epitope tag fusion)
proteolytic activity [1]: recombinant boPAG-6, -8, -9 and -10 have proteolytic activity with acidic pH optima
relative fluorescent product release, anti-FLAG immuno-trap protease assay, pH 3.0 (relative fluorescence) [1]: 84000
relative fluorescent product release, anti-FLAG immuno-trap protease assay, pH 4.0 (relative fluorescence) [1]: 77900
relative fluorescent product release, anti-FLAG immuno-trap protease assay, pH 5.0 (relative fluorescence) [1]: 66300
relative fluorescent product release, anti-FLAG immuno-trap protease assay, pH 6.0 (relative fluorescence) [1]: 31300
relative fluorescent product release, anti-FLAG immuno-trap protease assay, pH 7.0 (relative fluorescence) [1]: 24300

relative fluorescence (counts) of released product [13]: 6040 counts
Molecule: rabbit immunoglobulins (background control) (antibody)

B1: recombinant porcine PAG-2 (FLAG-tagged) (protein)
chain: DYKDDDDKLVMIPLTKVKSVRESLREKGLLKNFLKEHPYNMIQNLLSKNSSHVQKFSYQPLRNYLDMVYVGNISIGTPPQQFSVVFDTGSSDLWVPSIYCKSKACVTHRSFNPSHSSTFHDRGKSIKLEYGSGKMSGFLGQDTVRIGQLTSTGQAFGLSKEETGKAFEHAIFDGILGLAYPSIAIKGTTTVIDNLKKQDQISEPVFAFYLSSDKEEGSVVMFGGVDKKYYKGDLKWVPLTQTSYWQIALDRITCRGRVIGCPRGCQAIVDTGTSMLHGPSKAVAKIHSLIKHFEKEYVVPCNARKALPDIVFTINNVDYPVPAQAYIRKYVVPCNARKALPDIVFTINNVDYPVPAQAYIRKNANNNRCYSTFEDIMDTLNQREIWILGDVFLRLYFTVYDEGQNRIGLAQAT
proteolytic activity (% relative activity) [14]: maximal activity for boPAG-12 and poPAG-2 was at pH 3.5

B2: recombinant bovine PAG-2 (fusion protein with the FLAG peptide) (protein)
chain: DYKDDDDKIVILPLKKMKTLRETLREKNLLNNFLEEQAYRLSKNDSKITIHPLRNYLDTAYVGNITIGTPPQEFRVVFDTGSANLWVPCITCTSPACYTHKTFNPQNSSSFREVGSPITIFYGSGIIQGFLGSDTVRIGNLVSPEQSFGLSLEEYGFDSLPFDGILGLAFPAMGIEDTIPIFDNLWSHGAFSEPVFAFYLNTNKPEGSVVMFGGVDHRYYKGELNWIPVSQTSHWQISMNNISMNGTVTACSCGCEALLDTGTSMIYGPTKLVTNIHKLMNARLENSEYVVSCDAVKTLPPVIFNINGIDYPLRPQAYIIKIQNSCRSVFQGGTENSSLNTWILGDIFLRQYFSVFDRKNRRIGLAPAV
proteolytic activity (% relative activity) [14]: Maximal activity for boPAG-2 was at pH 4

Source: patent US20090258375A1
